This is an account of results in patent US20210063414A1, “METHODS FOR PREVENTING AND/OR TREATING BONE LOSS CONDITIONS BY MODULATING IRISIN” (Dana-Farber Cancer Institute, Inc., priority 2018, published 2021).

Holding throughout (assay): Crosslinking/co-immunoprecipitation/mass spectrometry (TMT quantitative proteomics) to identify irisin receptors
Holding throughout (format): binding

For experiment [1], the target named is T1, MLO-Y4 cell surface proteins (Mus musculus, UniProt E9Q557).
T1 construct: endogenous in cells; host or cells: MLO-Y4
The following applies: co-precipitated protein Dsp (DESP_MOUSE). The essentials:
(§1)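 Relative protein abundance came from 6-plex TMT MS3 quantitation on an Orbitrap Fusion Lumos, after in-gel trypsin digestion of Coomassie-stained SDS-PAGE lanes. Input was a Ni-NTA pulldown (250 mM imidazole elution) of lysates from murine MLO-Y4 cells. These cells were treated on ice with His-tagged irisin or adipsin (10 nM, 20 min) in serum-free medium, then crosslinked with 1.5 mM DTSSP for 30 min.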

For experiment [2], the target named is T2, MLO-Y4 cell surface proteins (Mus musculus, UniProt P59999).
T2 construct: endogenous in cells; host or cells: MLO-Y4
The settings on record: co-precipitated protein Atpc4 (ARPC4_MOUSE). In a few lines:
as §1

Experiment [3] addresses T3, MLO-Y4 cell surface proteins (Mus musculus, UniProt P97360).
T3 construct: endogenous in cells; host or cells: MLO-Y4
T3 sequence (P97360 1-485): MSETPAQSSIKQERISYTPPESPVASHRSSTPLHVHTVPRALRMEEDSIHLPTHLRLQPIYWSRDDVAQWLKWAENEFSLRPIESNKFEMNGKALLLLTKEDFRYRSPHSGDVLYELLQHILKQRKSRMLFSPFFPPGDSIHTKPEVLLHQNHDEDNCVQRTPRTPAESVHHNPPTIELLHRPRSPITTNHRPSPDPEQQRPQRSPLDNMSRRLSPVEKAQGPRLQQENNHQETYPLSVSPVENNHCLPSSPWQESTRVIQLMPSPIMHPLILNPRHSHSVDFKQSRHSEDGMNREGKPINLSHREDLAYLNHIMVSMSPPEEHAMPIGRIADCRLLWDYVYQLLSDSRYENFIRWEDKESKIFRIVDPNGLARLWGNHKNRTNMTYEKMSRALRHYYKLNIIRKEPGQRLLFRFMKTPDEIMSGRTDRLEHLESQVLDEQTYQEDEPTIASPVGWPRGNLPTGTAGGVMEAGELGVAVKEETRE
The following applies: co-precipitated protein Etv6 (ETV6_MOUSE). In a few lines: as §1

The target in experiment [4] is T4, MLO-Y4 cell surface proteins (Mus musculus, UniProt Q66GT5).
T4 construct: endogenous in cells; host or cells: MLO-Y4
T4 sequence (Q66GT5 32-193): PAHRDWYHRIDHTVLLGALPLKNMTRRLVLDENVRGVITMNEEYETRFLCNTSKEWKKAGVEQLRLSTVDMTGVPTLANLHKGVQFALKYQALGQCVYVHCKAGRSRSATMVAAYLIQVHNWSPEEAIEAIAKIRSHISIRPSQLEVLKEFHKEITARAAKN
The following applies: co-precipitated protein Ptpmt1 (PTPM1_MOUSE). The essentials:
as §1

The target of experiment [5] is T5, MLO-Y4 cell surface proteins (Mus musculus, UniProt Q8VCI5).
T5 construct: endogenous in cells; host or cells: MLO-Y4
T5 sequence (Q8VCI5 1-299): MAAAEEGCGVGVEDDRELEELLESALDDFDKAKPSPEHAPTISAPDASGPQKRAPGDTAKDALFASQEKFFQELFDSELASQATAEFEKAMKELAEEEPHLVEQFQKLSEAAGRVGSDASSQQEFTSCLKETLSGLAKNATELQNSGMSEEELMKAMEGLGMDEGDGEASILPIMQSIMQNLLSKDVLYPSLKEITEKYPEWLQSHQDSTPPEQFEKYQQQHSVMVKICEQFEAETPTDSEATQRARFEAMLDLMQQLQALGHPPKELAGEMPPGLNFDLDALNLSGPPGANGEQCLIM
The settings on record: co-precipitated protein Pex19 (PEX19_MOUSE). The essentials:
as §1

The target of experiment [6] is T6, MLO-Y4 cell surface proteins (Mus musculus, UniProt Q8VHN7).
T6 construct: endogenous in cells; host or cells: MLO-Y4
The settings on record: co-precipitated protein Gpr98 (GPR98_MOUSE). The essentials: as §1

T1 sequence (E9Q557 whole entry): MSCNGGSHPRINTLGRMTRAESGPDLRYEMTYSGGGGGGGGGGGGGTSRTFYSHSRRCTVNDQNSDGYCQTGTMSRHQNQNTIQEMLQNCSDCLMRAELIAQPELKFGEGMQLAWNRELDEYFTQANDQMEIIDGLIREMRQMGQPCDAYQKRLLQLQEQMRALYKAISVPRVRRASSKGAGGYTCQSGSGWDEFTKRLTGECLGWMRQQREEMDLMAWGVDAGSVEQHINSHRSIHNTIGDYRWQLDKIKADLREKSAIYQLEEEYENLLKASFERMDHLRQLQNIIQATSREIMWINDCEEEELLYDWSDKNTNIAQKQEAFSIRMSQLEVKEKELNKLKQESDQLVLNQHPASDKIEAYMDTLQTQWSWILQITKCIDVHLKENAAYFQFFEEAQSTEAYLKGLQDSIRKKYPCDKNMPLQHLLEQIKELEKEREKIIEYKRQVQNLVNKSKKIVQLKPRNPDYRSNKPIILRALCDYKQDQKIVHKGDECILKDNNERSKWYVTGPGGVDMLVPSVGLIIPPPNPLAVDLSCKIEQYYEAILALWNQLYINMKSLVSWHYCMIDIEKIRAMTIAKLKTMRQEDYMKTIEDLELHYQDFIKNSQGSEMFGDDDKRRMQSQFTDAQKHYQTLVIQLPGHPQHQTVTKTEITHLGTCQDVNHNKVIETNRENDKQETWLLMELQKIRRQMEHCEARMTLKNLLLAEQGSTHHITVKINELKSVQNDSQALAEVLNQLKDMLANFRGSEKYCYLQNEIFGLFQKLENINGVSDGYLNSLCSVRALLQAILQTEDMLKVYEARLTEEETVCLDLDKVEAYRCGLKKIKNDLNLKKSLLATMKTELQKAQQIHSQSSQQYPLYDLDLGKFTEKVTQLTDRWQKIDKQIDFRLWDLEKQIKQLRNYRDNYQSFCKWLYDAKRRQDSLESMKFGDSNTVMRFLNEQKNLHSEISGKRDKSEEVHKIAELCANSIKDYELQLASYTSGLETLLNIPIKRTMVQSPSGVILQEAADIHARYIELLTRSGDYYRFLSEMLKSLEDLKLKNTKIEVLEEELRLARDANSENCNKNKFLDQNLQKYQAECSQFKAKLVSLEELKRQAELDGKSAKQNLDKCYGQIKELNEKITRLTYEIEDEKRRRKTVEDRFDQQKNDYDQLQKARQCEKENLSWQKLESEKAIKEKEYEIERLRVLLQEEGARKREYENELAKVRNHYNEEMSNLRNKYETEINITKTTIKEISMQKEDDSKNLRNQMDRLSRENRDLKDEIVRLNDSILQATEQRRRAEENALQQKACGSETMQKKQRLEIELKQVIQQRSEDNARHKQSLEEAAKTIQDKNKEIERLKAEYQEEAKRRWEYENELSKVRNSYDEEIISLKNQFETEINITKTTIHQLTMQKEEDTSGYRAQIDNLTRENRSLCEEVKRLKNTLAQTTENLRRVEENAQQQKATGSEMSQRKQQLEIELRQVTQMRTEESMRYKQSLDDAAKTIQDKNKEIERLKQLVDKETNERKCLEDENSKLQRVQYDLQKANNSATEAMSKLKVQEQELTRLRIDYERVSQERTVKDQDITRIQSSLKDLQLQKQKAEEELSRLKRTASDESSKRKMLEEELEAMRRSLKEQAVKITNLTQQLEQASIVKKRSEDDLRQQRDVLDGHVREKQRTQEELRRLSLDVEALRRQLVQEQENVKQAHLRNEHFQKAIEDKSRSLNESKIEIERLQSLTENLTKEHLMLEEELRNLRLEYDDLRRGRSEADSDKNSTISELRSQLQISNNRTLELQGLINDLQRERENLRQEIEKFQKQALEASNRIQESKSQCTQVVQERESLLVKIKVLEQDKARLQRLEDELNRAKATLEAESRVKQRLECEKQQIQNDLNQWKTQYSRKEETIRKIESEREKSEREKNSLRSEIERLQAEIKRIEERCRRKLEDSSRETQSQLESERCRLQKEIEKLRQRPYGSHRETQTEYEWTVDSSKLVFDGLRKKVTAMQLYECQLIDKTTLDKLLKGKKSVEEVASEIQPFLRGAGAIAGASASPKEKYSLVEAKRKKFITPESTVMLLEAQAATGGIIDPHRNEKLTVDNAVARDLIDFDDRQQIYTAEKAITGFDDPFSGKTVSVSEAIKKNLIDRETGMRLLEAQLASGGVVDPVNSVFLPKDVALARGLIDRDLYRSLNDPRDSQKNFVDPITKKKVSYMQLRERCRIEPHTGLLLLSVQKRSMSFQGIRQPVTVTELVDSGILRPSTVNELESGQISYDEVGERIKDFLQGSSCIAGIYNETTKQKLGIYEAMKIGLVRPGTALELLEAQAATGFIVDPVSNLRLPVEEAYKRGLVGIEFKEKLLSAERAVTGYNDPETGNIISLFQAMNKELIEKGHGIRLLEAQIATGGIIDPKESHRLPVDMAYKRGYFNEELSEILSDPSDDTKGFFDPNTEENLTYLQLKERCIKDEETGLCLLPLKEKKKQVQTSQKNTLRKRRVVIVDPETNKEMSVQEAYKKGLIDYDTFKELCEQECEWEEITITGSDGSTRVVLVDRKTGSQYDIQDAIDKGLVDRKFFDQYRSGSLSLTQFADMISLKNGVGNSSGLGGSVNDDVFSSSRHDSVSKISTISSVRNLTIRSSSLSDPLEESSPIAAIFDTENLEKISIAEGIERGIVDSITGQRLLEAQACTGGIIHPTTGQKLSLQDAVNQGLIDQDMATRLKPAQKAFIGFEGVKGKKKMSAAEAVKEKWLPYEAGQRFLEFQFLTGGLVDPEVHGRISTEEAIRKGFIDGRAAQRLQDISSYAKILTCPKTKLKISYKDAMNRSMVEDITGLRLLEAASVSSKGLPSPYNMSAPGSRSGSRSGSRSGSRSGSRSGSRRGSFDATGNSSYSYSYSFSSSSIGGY

On to adipsin, for which the TMT signal-to-noise ratio was 79.7679 in experiment [1]; 138.296 in experiment [2]; 137.108 in experiment [3]; 92.3664 in experiment [4]; 60.4801 in experiment [5]; 618.49 in experiment [6].
